Reference: US7419813B2, “Fructosyl peptide oxidase” (Kikkoman Corporation, priority 2001, dated 2008)

Tests used:
[1] = Reaction assay in 96-well plate with fructosyl glycine (control substrate); assay type: biochemical; conditions: purified enzyme; control substrate set to 100%
Protocol: Fructosyl glycine (4.5 mg) was dissolved in 1 ml of water.
Developer solution consisted of the following materials:
• (a) Enzyme purified from Achaetomiella virescens ATCC 32393 • (b) Enzyme purified from Eupenicillium terrenum ATCC 18547 • (c) Enzyme purified from Coniochaeta sp. NISL 9330 (FERM BP-7798) • (d) 20 mM phosphate buffer, pH 8.0 (2) Reaction Assay
Reaction substrate (D: a, b) (20 μl), developer solution (E) (20 μl) and the inventive oxidase (F: a-d) (10 μl) were mixed in 96-well assay plates for reaction. Each plate was monitored at 510 nm using a plate reader (Immuno Mini NJ-2300, available from Nalge Nunc International K. K.) for 70 minutes. The results are shown as % relative activity when compared to 100% activity for fructosyl glycine (Table 4). […] It was confirmed that all of the inventive oxidases were reactive with the protease-digested products of α-glycated hexapeptide.

[2] = assay type: physicochemical; conditions: for pH of maximum remaining activity: 10 min; for stable pH range: purified oxidase, 30° C. for 10 minutes, remaining activities of 70% (Eupenicillium 60%) or higher
Protocol: For example, 200 mM acetic acid buffer (pH 3.0-6.0), 200 mM MES-NaOH (pH 6.0-7.0), 200 mM Tris buffer (pH 6.8-9.0), 200 mM potassium phosphate buffer (pH 6.5-8.0) and 200 mM glycine buffer (pH 8.0-12.0) are used as buffers to perform enzyme reactions at the indicated pH at 30° C. for 10 minutes, thereby determining the remaining activities of the oxidases of the invention. For example, the oxidases of the invention may have a stable pH at 5.0-10.0, preferably at 6.0-9.0. For example, 200 mM acetic acid buffer (pH 3.0-6.0), 200 mM MES-NaOH (pH 6.0-7.0), 200 mM Tris buffer (pH 6.8-9.0), 200 mM potassium phosphate buffer (pH 6.5-8.0) and 200 mM glycine buffer (pH 8.0-12.0) are used as buffers to perform enzyme reactions at the indicated pH at 30° C. for 10 minutes, thereby determining the remaining activities of the oxidases of the invention. For example, the oxidases of the invention that have less action on ε-fructosyl lysine may have a stable pH range at 5.0-10.0, preferably at 6.0-9.0. The inventive oxidase was treated with 200 mM acetic acid buffer (pH 3.0-6.0), 200 mM MES-NaOH (pH 6.0-7.0), 200 mM Tris buffer (pH 6.8-9.0), 200 mM potassium phosphate buffer (pH 6.5-8.0) or 200 mM glycine buffer (pH 8.0-12.0) at the indicated pH values at 30° C. for 10 minutes, and its remaining activity was determined. […] The inventive oxidase was treated with 200 mM acetic acid buffer (pH 3.0-6.0), 200 mM MES-NaOH (pH 6.0-7.0), 200 mM Tris buffer (pH 7.0-8.5), 200 mM potassium phosphate buffer (pH 6.0-8.0) or 200 mM glycine buffer (pH 8.0-12.0) at the indicated pH values at 30° C. for 10 minutes, and the remaining activity thereof was monitored.

[3] = Enzyme activity assay (hydrogen peroxide, POD-4-AA colour at 510 nm), fructosyl valyl histidine substrate; assay type: biochemical; conditions: for Substrate specificity (% relative activity) FVH / Activity per medium: crude enzyme sample; for action on fructosyl valyl histidine and ε-fructosyl lysine (in words): crude enzyme samples of Tables 1 and 2
Description: Enzyme activities of the oxidase of the invention and the oxidase of the invention that have less action on ε-fructosyl lysine (hereinafter, the term “the oxidases of the invention” may comprise both the oxidase of the invention and the oxidase of the invention that have less action on ε-fructosyl lysine) may principally be determined by determining the amount of α-ketoaldehyde, peptide, hydrogen peroxide or the like which are produced through enzyme reaction or by determining the amount of oxygen consumed by the enzyme reaction. Hereinafter, a method for determining the amount of hydrogen peroxide will be described as one example. Unless otherwise noted, fructosyl valyl histidine is used as a substrate for determining the activities of the oxidases of the invention. Titer of the enzyme is defined such that an amount of enzyme for producing 1 μmol hydrogen peroxide per minute is 1U as determined using a fructosyl valyl histidine substrate. 1.0 kU of peroxidase (Toyobo Co., Ltd, TYPE III) and 100 mg of 4-aminoantipyrine (Tokyo Kasei Kogyo Co., Ltd.) are dissolved in 0.1 M potassium phosphate buffer (pH 8.0) to a constant volume of 1L. 25 ml of a commercially available 2% solution (available from Nacalai Tesque, Inc.) is dissolved in ion exchange water to a constant volume of 100 ml. 624 mg of fructosyl valyl histidine is dissolved in ion exchange water to a constant volume of 10 ml. Alternatively, fructosyl glycine or ε-fructosyl lysine of 357 mg or 462 mg, respectively, may be dissolved in ion exchange water to a constant volume of 10 ml to be used as a substrate. Fructosyl valine histidine was prepared as described in Japanese Patent Application Laid-Open (kohyo) No. 2001-95598. Fructosyl glycine and ε-fructosyl lysine were prepared according to a method of Horiuchi et al. (Agric. Biol. Chem., 53, 103-110, 1989; Agric. Biol. Chem., 55, 333-338, 1991). 2.7 ml of Reagent 1, 100 μl of Reagent 2 and 100 μl of enzyme solution are mixed and pre-heated at 30° C. for 5 minutes. Then, 100 μl of Reagent 3 is added and thoroughly mixed to determine absorbance at 510 nm using a spectrophotometer (U-[…], Hitachi, Ltd.). Measurement values indicate changes in the absorbance per minute at 510 nm after 1 to 3 minutes. A control solution was prepared in the same manner as described above except 100 μl ion exchange water was added instead of 100 μl Reagent 3. A standard solution of hydrogen peroxide and ion exchange water were used instead of Reagent 3 and the enzyme solution, respectively, to prepare a graph showing relationship with respect to the level of color. Referring to this graph, micromole of hydrogen peroxide produced per minute at 30° C. is calculated and used as the unit for expressing the activity of the enzyme solution. The presence of action on ε-fructosyl lysine can be determined in the same manner by using Reagent 3 (substrate solution) containing ε-fructosyl lysine substrate instead of fructosyl valyl histidine substrate.

[4] = Optimum temperature range of the enzyme reaction; assay type: biochemical; conditions: purified oxidase
Protocol: For example, a reaction solution having the same composition as that of a reaction solution used for the activity assay described later is used to determine activities of the enzyme at various temperatures, thereby determining a suitable temperature range for action. The oxidases of the invention may, for example, have a suitable temperature range of 20-50° C., preferably 25-45° C. For example, a reaction solution having the same composition as that of a reaction solution for the activity assay described later is used to determine activities of the enzyme at various temperatures, thereby determining a suitable temperature range. The oxidases of the invention that have less action on ε-fructosyl lysine may, for example, have a suitable temperature range of 20-50° C., preferably 25-40° C. The activity of the inventive oxidase was assayed at different temperatures using reactions which consisted of the same compositions as those used in the above-described activity assay.

[5] = relative to activity for ε-fructosyl lysine (100%)
[6] = strain cultured on enzyme inducible medium 1 at 30° C. for 4 days, Tables 1 and 2

B1: Coniochaeta sp. NISL 9330: fructosyl peptide oxidase produced by Coniochaeta sp. NISL 9330 (FERM BP-7798) with less action on ε-fructosyl lysine; amino acid sequence SEQ ID NO: 1 (protein, listed as Coniochaeta sp.)
chain: MTSNRADTRVIVVGGGGTIGSSTALHLVRSGYAPANITVLDTFEIPSAQSAGHDLNKIMGIRLRNKVDLQMSLEARQMWKEDELFQPFFHNTGRMDCEHTPEGIEDLKKQYQALHDAGAGLEKTHAWLDNEDEILSKMPLLQRDQIQGWKAIWSQDGGWLAAAKAINAIGQFLKERGVKFGFGGAGSFKQPLFDDEGTTCIGVETADGTKYYADKVVLAAGAWSPTLVDLEDQCCSKAWVYAHIQLTPEEAAEYKGVPVVYNGEFGFFFEPNEFGVIKVCDEFPGFSRFKEHQPYGAPSPKHISVPRSHAKHPTDTYPDASEVSIKKAIATFLPRFQDKELFNRALCWCTDTADAALLMCEHPKWKNFILATGDSGHSFKILPNVGKHVVELIEGRLPEEMAYQWRWRPGGDALKSRRAAPPKDLADMPGWKHDPKL
For B1, the “% relative activity on fructosyl glycine” value [1] was 100%, the “pH of maximum remaining activity” value [2] was roughly 7.0 pH and the “stable pH range” value [2] was 5.0-9.0 pH. For the same molecule, the “Substrate specificity (% relative activity) FVH” value [3, 5] was 165%, the Activity per medium [3, 6] was 70.1 U/L and the “action on fructosyl valyl histidine and ε-fructosyl lysine (in words)” value [3] was “acted well on fructosyl valyl histidine but less on ε-fructosyl lysine”. For the same molecule, the “temperature of maximum activity (100%)” value [4] was “around 40 °C”.

B2: Eupenicillium terrenum ATCC 18547: fructosyl peptide oxidase produced by Eupenicillium terrenum ATCC 18547 with less action on ε-fructosyl lysine; amino acid sequence SEQ ID NO: 3 (protein, listed as Eupenicillium terrenum)
chain: MAHSRASTKVVVVGGGGTIGSSTALHLIRSGYTPSNITVLDVYKTPSLQSAGHDLNKIMGIRLRNGPDLQLSLESLDMWQNDELFKPFFHQVGMIDCSSSKEGIENLRRKYQTLLDAGIGLEKTNVWLESEDEILAKAPNFTREQVKGWKGLFCTDGGWLAAAKAINAIGIFLQDKGVKFGFGGAGTFQQPLFAADGKTCIGLETTDGTKYFADKVVLAAGAWSPTLVDLEDQCVSKAWVFAHIQLTPKEADAYKNVPVVYDGEYGFFFEPNEYGVIKVCDEFPGFSRFKLHQPYGAASPKMISVPRSHAKHPTDTYPDASEVTIRKAIARFLPEFKDKELFNRTMCWCTDTADANLLICEHPKWKNFILATGDSGHSFKLLPNIGKHVVELLEGSLSQEMAGAWRWRPGGDALRSRRGAPAKDLAEMPGWKHDAHL
For B2, the “% relative activity on fructosyl glycine” value [1] was 100%, the “pH of maximum remaining activity” value [2] was 8.0 pH and the “stable pH range” value [2] was 6.0-9.0 pH. For the same molecule, the Activity per medium ([3]; Eupenicillium strains on enzyme induction media 1 at 30° C. for 4 days, Table 3) was 2.8 U/L, the “Substrate specificity (% relative activity) FVH” value ([3]; reference substrate set to 100%) was 100% and the “Substrate specificity (% relative activity) FVH” value [3, 5] was 1023%. For the same molecule, the Activity per medium [3, 6] was 2.8 U/L, the “action on fructosyl valyl histidine and ε-fructosyl lysine (in words)” value [3] was “acted well on fructosyl valyl histidine but less on ε-fructosyl lysine” and the “temperature of maximum activity (100%)” value [4] was “around 35 °C”. For the same molecule, the optimum temperature range ([4]; relative activities of 50% or 60% or higher) was 25-40 °C.
